{"source": "paper PMC9807911", "about": "“RH5.1-CyRPA-Ripr antigen combination vaccine shows little improvement over RH5.1 in a preclinical setting” (Frontiers in Cellular and Infection Microbiology, 2022)", "molecular_target": "CyRPA (D29-E362; S147A, T324A, T340A) (Plasmodium falciparum 3D7, UniProt Q8IFM8 29-362, S147A | T324A | T340A)", "assay": "gel electrophoresis", "settings": "both partners purified"}
{"binder": "RH5.1 (E26-Q526; T40A, T216A, T286A, T299A) (natural protein) ENAIKKTKNQENNLALLPIKSTEEEKDDIKNGKDIKKEIDNDKENIKTNNAKDHSTYIKSYLNTNVNDGLKYLFIPSHNSFIKKYSVFNQINDGMLLNEKNDVKNNEDYKNVDYKNVNFLQYHFKELSNYNIANSIDILQEKEGHLDFVIIPHYTFLDYYKHLSYNSIYHKSSTYGKCIAVDAFIKKINEAYDKVKSKCNDIKNDLIATIKKLEHPYDINNKNDDSYRYDISEEIDDKSEETDDETEEVEDSIQDTDSNHAPSNKKKNDLMNRAFKKMMDEYNTKKKKLIKCIKNHENDFNKICMDMKNYGTNLFEQLSCYNNNFCNTNGIRYHYDEYIHKLILSVKSKNLNKDLSDMTNILQQSELLLTNLNKKMGSYIYIDTIKFIHKEMKHIFNRIEYHTKIINDKTKIIQDKIKLNIWRTFQKDELLKRILDMSNEYSLFITSDHLRQMLYNTFYSKEKHLNNIFHHLIYVLQMKFNDVPIKMEYFQTYKKNKPLTQ", "values": [{"measurement": "binding result", "value": "binds"}]}
